Results reported in patent US20220298260A1 (MYTHIC THERAPEUTICS, published 2022).
Changes are numbered by the printed parent chain. One block for each binder: values may come before it.

Target: T1, FOLR1 (R&D Systems, Cat #5646-FR) (human, UniProt P15328 25-233)
T1 construct: Bought soluble protein; also called Folate Receptor 1
Test: BLI, IgG on anti-human Fc sensor, 50 nM FOLR1

T1 sequence (P15328 25-233 limits assumed): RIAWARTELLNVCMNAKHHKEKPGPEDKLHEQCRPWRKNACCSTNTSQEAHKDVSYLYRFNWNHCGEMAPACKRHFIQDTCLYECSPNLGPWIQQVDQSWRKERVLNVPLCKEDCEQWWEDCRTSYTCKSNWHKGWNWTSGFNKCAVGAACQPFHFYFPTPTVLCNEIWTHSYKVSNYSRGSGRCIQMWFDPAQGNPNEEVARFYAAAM

B3: MYT4506 (antibody, V domains shown)
VH: EVQLVESGGGLVQPGGSLRLSCAASGFNIRTQSIHWVRQAPGKGLEWIGDIFPIDGITDYADSVKGRFTISADTSKNTAYLQMNSLRAEDTAVYYCARGSWSWPSGMDYYLDYWGQGTLVTVSS
VL: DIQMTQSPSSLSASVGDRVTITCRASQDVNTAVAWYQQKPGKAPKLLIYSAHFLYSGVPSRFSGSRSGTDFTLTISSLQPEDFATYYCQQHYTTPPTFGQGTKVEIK
notes: IgG
binding result: binds

B6: MYT4508 (antibody, V domains shown)
VH: B3 VH
VL: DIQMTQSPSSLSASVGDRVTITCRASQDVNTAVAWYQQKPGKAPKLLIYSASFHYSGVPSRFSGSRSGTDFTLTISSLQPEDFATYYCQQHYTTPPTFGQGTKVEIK
notes: IgG
binding result: binds

B7: MYT4513 (antibody, V domains shown)
VH: B3 VH
VL: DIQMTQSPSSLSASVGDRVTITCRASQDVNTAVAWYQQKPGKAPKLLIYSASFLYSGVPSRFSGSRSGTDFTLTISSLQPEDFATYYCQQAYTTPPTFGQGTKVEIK
notes: IgG
binding result: binds

B8: MYT4515 (antibody, V domains shown)
VH: B3 VH
VL: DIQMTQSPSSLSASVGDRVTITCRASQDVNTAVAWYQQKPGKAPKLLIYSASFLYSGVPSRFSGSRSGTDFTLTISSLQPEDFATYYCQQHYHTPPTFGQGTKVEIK
notes: IgG
binding result: binds

B10: MYT4517 (antibody, V domains shown)
VH: B3 VH
VL: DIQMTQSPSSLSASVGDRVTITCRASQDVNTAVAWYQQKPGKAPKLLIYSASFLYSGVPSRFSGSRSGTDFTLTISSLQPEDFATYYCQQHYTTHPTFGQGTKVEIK
notes: IgG
binding result: binds

B12: MYT4519 (antibody, V domains shown)
VH: B3 VH
VL: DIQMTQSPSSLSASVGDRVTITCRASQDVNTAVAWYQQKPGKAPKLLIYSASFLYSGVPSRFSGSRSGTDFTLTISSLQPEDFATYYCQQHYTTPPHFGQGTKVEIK
notes: IgG
binding result: binds

B14: MYT4514 (antibody, V domains shown)
VH: B3 VH
VL: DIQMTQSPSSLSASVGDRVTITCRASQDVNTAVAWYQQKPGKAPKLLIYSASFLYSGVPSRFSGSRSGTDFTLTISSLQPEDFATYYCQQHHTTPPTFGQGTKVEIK
notes: IgG
binding result: binds

B16: MYT2185 (antibody, V domains shown)
VH: EVQLVESGGGVVQPGRSLRLSCSASHFTFSGYGLSWVRQAPGKGLEWVAMISSGGSYTYYADSVKGRFAISRDNAKNTLFLQMDSLRPEDTGVYFCARHGDDPAWFAYWGQGTPVTVSS
VL: DIQLTQSPSSLSASVGDRVTITCSVSSSISSNNLHWYQQKPGKAPKPWIYGTSNLASGVPSRFSGSGSGTDYTFTISSLQPEDIATYYCQQWSSYPYMYTFGQGTKVEIK
notes: IgG
binding result: binds

B17: MYT2188 (antibody, V domains shown)
VH: B16 VH with H26G, F29H
VL: B16 VL
notes: IgG
binding result: binds

B18: MYT2186 (antibody, V domains shown)
VH: B16 VH with H26G, F27H
VL: B16 VL
notes: IgG
binding result: binds

B20: MYT2189 (antibody, V domains shown)
VH: B16 VH with H26G, S30H
VL: B16 VL
notes: IgG
binding result: binds

Further lines, results first:

binding result: binds
B1: MYT4504 (antibody, V domains shown)
VH: B3 VH
VL: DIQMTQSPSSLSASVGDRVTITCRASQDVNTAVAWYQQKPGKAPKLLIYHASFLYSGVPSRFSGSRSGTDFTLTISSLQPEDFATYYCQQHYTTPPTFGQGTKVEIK
notes: IgG

binding result: binds
B2: MYT4516 (antibody, V domains shown)
VH: B3 VH
VL: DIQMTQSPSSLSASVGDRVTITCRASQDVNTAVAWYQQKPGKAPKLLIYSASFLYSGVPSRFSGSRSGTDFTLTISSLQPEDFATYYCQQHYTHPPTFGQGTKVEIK
notes: IgG

binding result: binds
B4: MYT4512 (antibody, V domains shown)
VH: B3 VH
VL: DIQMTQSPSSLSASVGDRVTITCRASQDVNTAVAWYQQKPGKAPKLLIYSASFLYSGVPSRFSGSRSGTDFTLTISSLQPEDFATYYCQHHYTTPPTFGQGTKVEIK
notes: IgG

binding result: binds
B5: MYT4510 (antibody, V domains shown)
VH: B3 VH
VL: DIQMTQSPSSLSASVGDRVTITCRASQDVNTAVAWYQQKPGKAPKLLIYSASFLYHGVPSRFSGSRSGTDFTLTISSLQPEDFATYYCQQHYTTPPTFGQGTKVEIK
notes: IgG

binding result: binds
B9: MYT4511 (antibody, V domains shown)
VH: B3 VH
VL: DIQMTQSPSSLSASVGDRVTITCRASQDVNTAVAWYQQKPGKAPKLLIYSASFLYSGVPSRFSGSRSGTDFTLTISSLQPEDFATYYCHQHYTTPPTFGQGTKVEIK
notes: IgG

binding result: binds
B11: MYT4518 (antibody, V domains shown)
VH: B3 VH
VL: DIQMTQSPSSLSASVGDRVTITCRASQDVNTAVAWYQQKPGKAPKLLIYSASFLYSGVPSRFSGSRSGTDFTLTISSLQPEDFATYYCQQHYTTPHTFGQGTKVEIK
notes: IgG

binding result: binds
B13: MYT4507 (antibody, V domains shown)
VH: B3 VH
VL: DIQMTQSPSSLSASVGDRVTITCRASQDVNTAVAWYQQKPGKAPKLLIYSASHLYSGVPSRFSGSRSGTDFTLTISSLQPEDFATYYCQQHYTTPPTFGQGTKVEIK
notes: IgG

binding result: binds
B15: MYT4509 (antibody, V domains shown)
VH: B3 VH
VL: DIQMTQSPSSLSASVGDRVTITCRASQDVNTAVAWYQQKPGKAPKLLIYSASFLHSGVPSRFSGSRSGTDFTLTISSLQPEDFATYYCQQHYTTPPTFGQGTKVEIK
notes: IgG

binding result: binds
B19: MYT2187 (antibody, V domains shown)
VH: B16 VH with H26G, T28H
VL: B16 VL
notes: IgG
